The record followed here is paper PMC3902928, “Nuclear ubiquitination by FBXL5 modulates Snail1 DNA binding and stability” (Nucleic Acids Research, 2013).

One assay deals with GST-FBXL5 (pGEX-6P-1) (UniProt Q9UKA1). The experiment in a line: pull-down; GST or GST-FBXL5 protein on glutathione-sepharose with extracts from transfected HEK293T cells; western blot.
Assay [1] deals with T1, 3xFlag-FBXL5 (baculovirus) (UniProt Q9UKA1 1-691).
T1 construct: FBXL5; pFastBac1 3xFlag-FBXL5 provided by Dr Bruick; source: also co-infected with 6xHis-Skp1, HA-Cullin1 and Rbx1 for the SCF^FBXL5 complex; not shown: 3xFlag, N-terminal, kept
T1 sequence (looked up): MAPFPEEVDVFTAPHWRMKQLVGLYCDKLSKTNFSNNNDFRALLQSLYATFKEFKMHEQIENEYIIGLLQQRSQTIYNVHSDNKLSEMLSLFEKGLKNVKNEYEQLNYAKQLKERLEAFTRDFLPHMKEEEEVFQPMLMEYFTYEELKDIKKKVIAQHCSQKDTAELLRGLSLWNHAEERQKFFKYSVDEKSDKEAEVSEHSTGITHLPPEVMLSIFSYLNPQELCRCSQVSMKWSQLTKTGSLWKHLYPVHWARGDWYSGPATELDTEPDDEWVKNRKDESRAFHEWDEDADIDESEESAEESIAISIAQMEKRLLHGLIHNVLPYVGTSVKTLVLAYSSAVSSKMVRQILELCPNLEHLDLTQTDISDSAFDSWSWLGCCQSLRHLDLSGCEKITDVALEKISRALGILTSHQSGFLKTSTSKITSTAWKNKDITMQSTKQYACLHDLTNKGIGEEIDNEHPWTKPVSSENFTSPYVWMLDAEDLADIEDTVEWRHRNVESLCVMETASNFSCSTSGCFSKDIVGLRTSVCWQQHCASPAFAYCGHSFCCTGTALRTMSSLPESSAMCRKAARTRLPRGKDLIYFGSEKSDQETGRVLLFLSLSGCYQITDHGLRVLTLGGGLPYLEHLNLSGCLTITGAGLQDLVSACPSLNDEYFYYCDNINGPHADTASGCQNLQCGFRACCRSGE
Put plainly: pull-down; 0.2 pmol 3xFlag-FBXL5 incubated with 2.5 pmol GST or GST-Snail1 as baits on glutathione-sepharose; western blot. The conditions noted are these: both partners purified. In general terms: In western blotting, separated proteins are transferred to a membrane and probed.

“GFP-Snail1CT ΔZnF1 (from UniProt Q02085 181-264) (domain or fragment)” gave a decrease of binding against the full C-terminal domain in the assay with GST-FBXL5 (pGEX-6P-1) of 45%.

Take “GFP-Snail1CT ΔZnF1-2 (from UniProt Q02085 209-264) (domain or fragment)”: the decrease of binding against the full C-terminal domain with GST-FBXL5 (pGEX-6P-1) stood at 80%.

As to “GFP-Snail1CT ΔZnF3-4 (from UniProt Q02085 152-208) (domain or fragment)”, the decrease of binding against the full C-terminal domain with GST-FBXL5 (pGEX-6P-1) is > 50%.

B1: GST-Snail1-HA (baculovirus) (natural protein, UniProt Q02085 1-264, looked up)
chain: MPRSFLVRKPSDPRRKPNYSELQDACVEFTFQQPYDQAHLLAAIPPPEVLNPAASLPTLIWDSLLVPQVRPVAWATLPLRESPKAVELTSLSDEDSGKSSQPPSPPSPAPSSFSSTSASSLEAEAFIAFPGLGQLPKQLARLSVAKDPQSRKIFNCKYCNKEYLSLGALKMHIRSHTLPCVCTTCGKAFSRPWLLQGHVRTHTGEKPFSCSHCNRAFADRSNLRAHLQTHSDVKRYQCQACARTFSRMSLLHKHQESGCSGGPR
notes: Snail1; insert subcloned from pcDNA3-Snail1-HA through pEBG-2T into pFastBac1; source: Sf9, baculovirus-infected, purified; not shown: GST, N-terminal, kept
In the case of B1, the binding result in assay [1] is listed as “binds”.
